The values that follow come from paper PMC10235760.

What is called pKd is the Kd on a negative log10 scale, so that one unit is a factor of ten.

pKd: −log10 of the molar value.

The target in this assay is SARS-CoV-2 receptor binding domain, omicron subvariant BA5 (RBDBA5) (UniProt P0DTC2). Put plainly: SPR.
In the case of antibody 10-40 H:G27S, the ratio to parent stood at 0.79. For the substance antibody 10-40 H:R100bI, the pKd is 10.16 and the ratio to parent worked out at 3.83.

Regarding antibody 10-40 H:R100bI; H:S32H, the pKd was 11.69 and the ratio to parent amounted to 130.

Take antibody 10-40 H:R100bI; H:S32H; L:Q53F: the pKd was 13.30. With antibody 10-40 H:R100bL, the pKd is 9.81 and the ratio to parent was 1.72. On to antibody 10-40 H:S98R, for which the ratio to parent stood at 0.26. Still for that read-out and setting: next, antibody 10-40 L:D51W: 0.5. As to antibody 10-40 L:Q53F, the pKd is 9.73 and the ratio to parent is 1.42.
